By stoichiometry N is commonly meant the number of molecules, sites or subunits per partner or assembly.

Among the data in publication PMC5495134 are stoichiometry N values, retold here.

For assay [1], the target named is Mth1491 homotrimer with a cysteine introduced at position 92, modified with azo maleimide 3 (Methanobacterium thermoautotrophicum). Briefly: affinity chromatography on beta-cyclodextrin resin with LC-MS of fractions; Mth1491 modified to about 50% with azo maleimide 3, eluted from a column packed with resin 4 (beta-cyclodextrin on sepharose CL-4B); four peaks for the modification states of the trimer; isolated singly and doubly modified species repurified; trimer disassembles upon LC-MS.

Assay [2] deals with Mth1491 homotrimer with a cysteine introduced at position 92, tagged, azo-cleaved, AF-labelled and protected with Ellman's reagent (Methanobacterium thermoautotrophicum). Briefly: dynamic light scattering; average particle size before and after protection with Ellman's reagent (5.5 ± 0.3 nm to 7.4 ± 0.9 nm). On the technique in general: In Ellman's method for cholinesterases, released thiocholine reacts with DTNB.

Consider “Mth1491 homotrimer with a cysteine introduced at position 92, modified with azo maleimide 3 (natural protein)”, for which the stoichiometry N in assay [1] stood at 3.
“Mth1491 homotrimer with a cysteine introduced at position 92, tagged, azo-cleaved, AF-labelled and protected with Ellman's reagent (natural protein)” returned a stoichiometry N in assay [2] of 3.
